Patent US20040106198A1, “Inhibition of peptide cleavage in plants” (LARGE SCALE BIOLOGY CORPORATION, priority 2002, published 2004)

Molecular target: Nicotianalisin (Nicotiana benthamiana subtilisin-like serine protease) (Nicotiana benthamiana)
Assay: cell-based or functional assay

Chain of Nicotianalisin (Nicotiana benthamiana subtilisin-like serine protease) (Nicotiana benthamiana) (chain, as listed by the source limits assumed): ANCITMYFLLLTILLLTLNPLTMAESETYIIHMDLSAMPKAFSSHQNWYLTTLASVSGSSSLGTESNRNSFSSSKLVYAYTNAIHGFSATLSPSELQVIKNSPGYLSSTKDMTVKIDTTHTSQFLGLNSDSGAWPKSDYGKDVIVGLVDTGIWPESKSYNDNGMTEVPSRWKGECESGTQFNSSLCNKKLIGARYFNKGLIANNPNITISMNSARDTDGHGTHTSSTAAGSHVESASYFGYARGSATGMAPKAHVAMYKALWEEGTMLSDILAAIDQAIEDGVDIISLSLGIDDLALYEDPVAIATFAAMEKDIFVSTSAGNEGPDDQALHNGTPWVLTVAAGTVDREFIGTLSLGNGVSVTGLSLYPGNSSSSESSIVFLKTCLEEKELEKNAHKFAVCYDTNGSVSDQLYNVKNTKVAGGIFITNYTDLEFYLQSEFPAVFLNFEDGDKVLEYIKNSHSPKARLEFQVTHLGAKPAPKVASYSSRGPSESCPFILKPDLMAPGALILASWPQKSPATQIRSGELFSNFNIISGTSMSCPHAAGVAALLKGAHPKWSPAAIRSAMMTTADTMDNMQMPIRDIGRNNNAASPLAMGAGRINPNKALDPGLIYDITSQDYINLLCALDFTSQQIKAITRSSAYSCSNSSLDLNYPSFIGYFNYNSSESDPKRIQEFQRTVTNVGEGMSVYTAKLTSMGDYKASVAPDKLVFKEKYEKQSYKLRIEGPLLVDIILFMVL

| Substance | % Inhibition of protease activity in IF (hydrolysis of 0.3 mM N-Suc-AAPL-p-NA after 30 min with inhibitor at 24 C) |
| --- | --- |
| Amastatin (peptide) | 5% |
| Antipain (peptide) | 77% |
| Chymostatin (peptide) | 100% |
| Cystain | 2% |
| Elastinal (peptide) | 41% |
| Leupeptin (peptide) | 18% |
| Pepstatin A (peptide) | 6% |
| pI-II | 2% |
| potato protease inhibitor I | 30% |
